{
  "source": "patent US20210032664",
  "about": "“ENGINEERED MEGANUCLEASES WITH RECOGNITION SEQUENCES FOUND IN THE HUMAN BETA-2 MICROGLOBULIN GENE” (Precision Biosciences, Inc., published 2021)",
  "binders": {"B1": {"name": "B2M 13-14 recognition sequence (dsDNA)", "DNA 1": "CTATCTCTTGTACTACACTGAA", "DNA 2": "TTCAGTGTAGTACAAGAGATAG"}},
  "test_in_all_cases": "cell_activity; human T cells, 1 ug mRNA, day 3",
  "conditions_in_all_cases": "tags: N-terminal SV40 NLS",
  "key": {"B2M 13-14x.202": {"target": "T1, B2M 13-14x.202 (Artificial Sequence)", "T1 chain": "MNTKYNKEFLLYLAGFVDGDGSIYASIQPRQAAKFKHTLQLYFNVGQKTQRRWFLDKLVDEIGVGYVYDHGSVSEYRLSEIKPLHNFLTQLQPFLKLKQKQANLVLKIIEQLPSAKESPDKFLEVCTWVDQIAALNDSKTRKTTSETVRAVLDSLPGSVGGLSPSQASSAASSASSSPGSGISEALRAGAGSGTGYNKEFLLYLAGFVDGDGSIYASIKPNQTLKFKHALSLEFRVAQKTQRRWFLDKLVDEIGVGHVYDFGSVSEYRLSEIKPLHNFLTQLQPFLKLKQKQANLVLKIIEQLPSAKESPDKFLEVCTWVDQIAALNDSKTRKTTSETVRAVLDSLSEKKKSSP", "protocol": "(§1) Donor human T cells were stimulated with anti-CD3 and anti-CD28 antibodies for 3 days, then electroporated with mRNA encoding a given B2M 13-14 meganuclease (1 μg) using the Amaxa 4D-Nucleofector (Lonza) according to the manufacturer's instructions. To look for the loss of B2M surface expression, cells were stained with an antibody recognizing β-2 microglobulin (BD Biosciences) as well as an antibody recognizing CD3 (BioLegend), a marker of T cells."}, "B2M 13-14x.325": {"target": "T2, B2M 13-14x.325 (Artificial Sequence)", "T2 chain": "T1 chain with A32H, A33S, T38S, N221S, T223A, A229S, S231A, A237F, F261T, E266D", "protocol": "as §1"}, "B2M 13-14x.365": {"target": "T3, B2M 13-14x.365 (Artificial Sequence)", "T3 chain": "T1 chain with A32H, A33S, T38S, N221R, T223R, A229Q, S231F, A237T, F261H", "protocol": "as §1"}, "B2M 13-14x.551": {"target": "T4, B2M 13-14x.551 (Artificial Sequence)", "T4 chain": "T1 chain with A32R, A33S, T38S, S217G, N221R, T223R, A229Q, S231L, A237S, F261A", "protocol": "as §1"}, "B2M 13-14x.286": {"target": "T5, B2M 13-14x.286 (Artificial Sequence)", "T5 chain": "T1 chain with A32H, A33S, T38S, N221M, T223P, A229G, S231T, A237S", "protocol": "as §1"}, "B2M 13-14x.285": {"target": "T6, B2M 13-14x.285 (Artificial Sequence)", "T6 chain": "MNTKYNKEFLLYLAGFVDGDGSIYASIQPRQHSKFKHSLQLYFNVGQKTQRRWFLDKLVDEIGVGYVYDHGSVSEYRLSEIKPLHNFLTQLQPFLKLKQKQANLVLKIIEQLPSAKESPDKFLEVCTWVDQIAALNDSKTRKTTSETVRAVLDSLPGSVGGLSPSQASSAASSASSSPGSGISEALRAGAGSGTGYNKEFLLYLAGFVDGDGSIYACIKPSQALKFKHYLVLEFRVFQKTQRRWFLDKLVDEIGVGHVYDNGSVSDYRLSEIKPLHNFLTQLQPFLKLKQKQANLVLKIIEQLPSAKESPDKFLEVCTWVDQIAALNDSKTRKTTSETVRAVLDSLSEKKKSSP", "protocol": "as §1"}, "B2M 13-14x.287": {"target": "T7, B2M 13-14x.287 (Artificial Sequence)", "T7 chain": "T6 chain with C217S, S221C, A223C, Y229Q, V231F, F237T, N261S", "protocol": "as §1"}},
  "note": "Substitutions are numbered along the chain they refer to. Numbers in names are those of the source.",
  "data": [
    {"binder": "B1", "values": [
      {"measurement": "activity", "setting": "B2M 13-14x.202", "value": 60.9, "unit": "% B2M-negative"},
      {"measurement": "activity", "setting": "B2M 13-14x.325", "value": 14.4, "unit": "% B2M-negative"},
      {"measurement": "activity", "setting": "B2M 13-14x.365", "value": 27.4, "unit": "% B2M-negative"},
      {"measurement": "activity", "setting": "B2M 13-14x.551", "value": 40.3, "unit": "% B2M-negative"},
      {"measurement": "activity", "setting": "B2M 13-14x.286", "value": 44.6, "unit": "% B2M-negative"},
      {"measurement": "activity", "setting": "B2M 13-14x.285", "value": 22, "unit": "% B2M-negative"},
      {"measurement": "activity", "setting": "B2M 13-14x.287", "value": 75.7, "unit": "% B2M-negative"}
    ]}
  ]
}
